Assay results: patent publication US7192735
Where “and” joins values, the source holds several entries; their conditions need not be identical. Identical values can stand only once.

Key:
[1] = system: Streptomycete ACP involved in frenolicin polyketide antibiotic biosynthesis (apo-form)
[2] = system: Lactobacillus casei D-Alanyl carrier protein (apo-Dcp)
[3] = system: Rhizobial NodF (wild-type)
[4] = biological target: EntF (E. coli enterobactin synthetase component), apo form (UniProt P11454)
[5] = system: Streptomycete ACP involved in granaticin polyketide antibiotic biosynthesis (apo-form)
[6] = system: Streptomycete ACP involved in tetracenomycin polyketide antibiotic biosynthesis (apo-form)
[7] = biological target: E. coli fatty acid synthase apo-acyl carrier protein (apo-ACP) (UniProt P0A6A8)
[8] = system: Streptomycete ACP involved in oxytetracycline polyketide antibiotic biosynthesis (apo-form)
[9] = biological target: T1, His6-SrfB1 (N-terminal hexa-histidine-tagged SrfB1 valine-activating domain of surfactin synthetase) (UniProt Q04747)
T1 sequence: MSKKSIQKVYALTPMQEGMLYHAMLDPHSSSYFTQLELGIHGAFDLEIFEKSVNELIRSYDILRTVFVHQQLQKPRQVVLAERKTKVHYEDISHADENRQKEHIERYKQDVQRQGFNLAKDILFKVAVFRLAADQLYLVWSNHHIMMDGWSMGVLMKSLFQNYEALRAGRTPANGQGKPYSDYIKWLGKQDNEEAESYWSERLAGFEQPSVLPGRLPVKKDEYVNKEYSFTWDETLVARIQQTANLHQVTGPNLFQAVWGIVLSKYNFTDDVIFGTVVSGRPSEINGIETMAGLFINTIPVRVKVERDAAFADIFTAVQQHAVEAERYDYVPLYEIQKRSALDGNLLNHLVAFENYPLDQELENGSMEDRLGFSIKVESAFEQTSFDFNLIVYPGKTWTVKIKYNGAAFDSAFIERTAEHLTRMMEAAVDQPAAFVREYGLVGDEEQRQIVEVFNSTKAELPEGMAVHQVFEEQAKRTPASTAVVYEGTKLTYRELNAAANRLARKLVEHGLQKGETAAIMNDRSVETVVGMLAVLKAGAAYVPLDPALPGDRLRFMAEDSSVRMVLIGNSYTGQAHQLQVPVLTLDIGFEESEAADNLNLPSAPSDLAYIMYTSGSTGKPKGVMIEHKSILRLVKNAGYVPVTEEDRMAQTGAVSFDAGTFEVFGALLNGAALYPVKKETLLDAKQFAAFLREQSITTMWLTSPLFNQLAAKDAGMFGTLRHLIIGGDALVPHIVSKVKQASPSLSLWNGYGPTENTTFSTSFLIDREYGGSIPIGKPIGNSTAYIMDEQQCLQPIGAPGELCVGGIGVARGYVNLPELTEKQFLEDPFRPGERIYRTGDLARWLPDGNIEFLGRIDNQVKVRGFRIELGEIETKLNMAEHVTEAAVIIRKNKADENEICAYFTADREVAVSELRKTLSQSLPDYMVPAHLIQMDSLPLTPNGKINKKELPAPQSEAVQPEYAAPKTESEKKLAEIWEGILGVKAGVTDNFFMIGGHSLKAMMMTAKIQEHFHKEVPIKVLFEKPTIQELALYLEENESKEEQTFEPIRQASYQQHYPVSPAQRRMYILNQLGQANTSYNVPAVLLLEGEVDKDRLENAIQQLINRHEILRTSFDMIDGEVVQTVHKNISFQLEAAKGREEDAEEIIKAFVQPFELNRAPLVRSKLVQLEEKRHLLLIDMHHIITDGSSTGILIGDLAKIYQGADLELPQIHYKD

[10] = system: His6-peptidyl carrier protein (PCP domain of TycA, hexa-histidine tagged)
[11] = biological target: His6-SrfB1 (N-terminal hexa-histidine-tagged SrfB1 valine-activating domain of surfactin synthetase) (Bacillus) (UniProt Q04747); test: cell-based or functional assay

Sequence of E. coli fatty acid synthase apo-acyl carrier protein (apo-ACP) (P0A6A8 2-78): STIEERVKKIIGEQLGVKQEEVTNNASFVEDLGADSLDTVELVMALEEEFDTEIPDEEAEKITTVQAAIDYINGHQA
Sequence of EntF (E. coli enterobactin synthetase component), apo form (P11454 whole entry): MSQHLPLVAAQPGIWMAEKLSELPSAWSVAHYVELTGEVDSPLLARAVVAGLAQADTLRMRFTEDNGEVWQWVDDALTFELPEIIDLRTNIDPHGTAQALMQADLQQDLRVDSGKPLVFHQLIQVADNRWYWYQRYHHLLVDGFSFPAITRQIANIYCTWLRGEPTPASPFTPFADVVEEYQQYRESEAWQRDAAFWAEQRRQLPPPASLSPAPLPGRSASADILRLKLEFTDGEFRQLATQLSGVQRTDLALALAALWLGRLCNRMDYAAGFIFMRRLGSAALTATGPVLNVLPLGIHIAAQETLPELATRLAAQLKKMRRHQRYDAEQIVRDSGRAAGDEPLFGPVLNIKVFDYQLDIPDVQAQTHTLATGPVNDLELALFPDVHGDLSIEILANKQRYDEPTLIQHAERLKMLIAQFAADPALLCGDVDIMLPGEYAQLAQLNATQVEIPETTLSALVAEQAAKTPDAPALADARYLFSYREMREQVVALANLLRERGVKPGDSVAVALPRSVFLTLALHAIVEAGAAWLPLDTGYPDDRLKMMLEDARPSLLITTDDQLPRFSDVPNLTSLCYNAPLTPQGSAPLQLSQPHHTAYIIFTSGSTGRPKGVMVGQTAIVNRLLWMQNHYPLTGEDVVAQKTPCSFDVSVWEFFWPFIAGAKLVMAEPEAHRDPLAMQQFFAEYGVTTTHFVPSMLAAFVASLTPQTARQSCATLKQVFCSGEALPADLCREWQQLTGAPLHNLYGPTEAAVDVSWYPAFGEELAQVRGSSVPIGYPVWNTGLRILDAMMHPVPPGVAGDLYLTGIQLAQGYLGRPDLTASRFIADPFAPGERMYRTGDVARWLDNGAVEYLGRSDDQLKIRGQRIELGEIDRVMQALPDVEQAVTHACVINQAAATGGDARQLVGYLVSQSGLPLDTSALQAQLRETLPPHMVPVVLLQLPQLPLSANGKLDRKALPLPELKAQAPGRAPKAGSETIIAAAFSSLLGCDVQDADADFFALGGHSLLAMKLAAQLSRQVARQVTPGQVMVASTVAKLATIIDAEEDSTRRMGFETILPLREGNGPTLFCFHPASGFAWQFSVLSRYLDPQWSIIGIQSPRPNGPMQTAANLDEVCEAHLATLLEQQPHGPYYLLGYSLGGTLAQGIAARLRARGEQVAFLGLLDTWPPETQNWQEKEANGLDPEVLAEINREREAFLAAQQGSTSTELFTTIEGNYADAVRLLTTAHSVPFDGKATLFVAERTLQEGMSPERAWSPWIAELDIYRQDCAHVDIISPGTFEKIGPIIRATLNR

Escherichia coli holo-acyl carrier protein synthase (ACPS)
phosphopantetheinylation [1]: E. coli ACPS modifies the apo-form of Streptomycete ACPs involved in frenolicin, granaticin, oxytetracycline, and tetracenomycin polyketide antibiotic biosynthesis | [^3H] holo-Dcp formed versus apo-Dcp [2]: the amount of holo-Dcp formed increases linearly with the amount of apo-Dcp in the reaction | radioactivity incorporated into the protein fraction (Dcp + ACPS) [2]: 0.98 × 10^6 (±0.95%) and 1.04 × 10^6 (±0.93%) and 1.00 × 10^6 (±0.77%) | % conversion [3]: 47% conversion | [3H]phosphopantetheine incorporated (+ ACPS) [3]: 236 000 dpm | time course of incorporation of radiolabel into EntF [4]: EntF undergoes almost no modification in the presence of 15-fold higher concentrations of ACPS and o195 | phosphopantetheinylation [5]: E. coli ACPS modifies the apo-form of Streptomycete ACPs involved in frenolicin, granaticin, oxytetracycline, and tetracenomycin polyketide antibiotic biosynthesis | [3H]phosphopantetheine incorporated (+ ACPS) (ACP-NodF chimera): 122 000 dpm | phosphopantetheinylation [6]: E. coli ACPS modifies the apo-form of Streptomycete ACPs involved in frenolicin, granaticin, oxytetracycline, and tetracenomycin polyketide antibiotic biosynthesis | % conversion [7]: 46% conversion | Km value for apo-ACP [7]: we were able to assign an upper limit of ˜1 µM to the Km value for apo-ACP | [3H]phosphopantetheine incorporated (+ ACPS) [7]: 1 320 000 dpm | apparent kcat [7]: An apparent kcat value of about 10 min^-1 was measured at saturating CoA and 50 µM apo-ACP | radioactivity incorporated into the protein fraction (ACP + ACPS) [7]: 2.13 × 10^6 (±.65%) and 2.20 × 10^6 (±.64%) and 2.21 × 10^6 (±.63%) | time course of holo-ACP formation [7]: almost exclusive modification of apo-ACP by ACPS | phosphopantetheinylation [8]: E. coli ACPS modifies the apo-form of Streptomycete ACPs involved in frenolicin, granaticin, oxytetracycline, and tetracenomycin polyketide antibiotic biosynthesis

Sfp (B. subtilis phosphopantetheinyl transferase)
incorporation of [3H]-4'-Ppant [9]: Sfp is capable of phosphopantetheinylating an SfrB1 fragment | [3H]-4'-Ppant incorporated versus substrate concentration [10]: Sfp is capable of phosphopantetheinylating a substrate, such as PCP, in a wide range of concentrations | phosphopantetheinylation [10]: Sfp efficiently catalyzes modification of all three substrates | phosphopantetheinylation [7]: Sfp efficiently catalyzes modification of all three substrates

EntD (E. coli), recombinant from pET28b-entD
incorporation of [3H]-4'-Ppant [4]: EntD is capable of phosphopantetheinylating an EntF fragment | time course of incorporation of radiolabel into EntF [4]: EntF is modified effectively by EntD (100 nM)

Sfp (B. subtilis phosphopantetheinyl transferase) (enzyme)
level of [^14C]-L-valine-holo-SrfB1 covalent complex formed [11]: 14 fold
